From patent publication US20180282401A1 (AXON NEUROSCIENCE, published 2018) come the findings set out here.

To fix the notation:
B1: monoclonal antibody DC8E8 (antibody, V domains shown)
VH: QVQLQQSGPELVKPGTSVKMPCKASGYIFTDYVISWVKQRTGQGLEWIGEIFPRSGSTYYNEKFKGKATLTADKSSNTAYMQLSSVTSEDSAVYFCARDYYGTSFAMDYWGQGTSVTVSS
VL: DIVMSQSPSSLAVSAGEKVTMSCKSSQSLLNSRTRKNYLAWYQQKPGQSPKLLIYWASTRESGVPDRFTGSGSGTDFTLTISSVQAEDLAVYYCKQSFYLRTFGGGTKLDIK
notes: also called mAb DC8E8; antibody of hybridoma ATCC PTA-11994

For assay [1], the target named is B1. The assay is described as follows: competition ELISA: peptide pre-incubated with DC8E8, binding to plate-coated tauΔ(1-150;392-441)4R measured. (In general: In an ELISA, binding on a coated surface is turned into a signal by an enzyme label.)
Description: The coated ELISA plates were washed 4 times with PBS/Tween 20 (phosphate-buffered saline supplemented with 0.05% v/v Tween 20), and blocked with PBS/Tween 20 for 2 h at 25° C. Each of the peptides was separately dissolved in PBS at the final concentration of 5 mM. […] The antibody/peptide mixtures were incubated for 1 hr at 25° C. on a rotating platform set to 250 rpm. One hundred microliters of the antibody/peptide mixtures were then transferred into the prepared ELISA plates and incubated for 1 hr at 25° C. on a rotating platform set to 250 rpm. The ELISA plates were washed 4× times with PBS/Tween 20. The ELISA plates were then incubated with 100 μl of Polyclonal Goat Anti-Mouse Immunoglobulins/HRP (Dako, #P0447) diluted 1:4 000 in PBS/Tween 20 and incubated for 1 hr at 25° C. on a rotating platform set to 250 rpm. The ELISA plates were washed 4× times with PBS/Tween20. […] The developed signal was measured by reading at 490 nm (e.g. using the Victor Multilabel Counter (Wallac).
Assay [2] concerns the target B1. Description: competition ELISA: peptide pre-incubated with DC8E8 (1 µg/ml), then on plates coated with the competitor tauΔ(1-150;392-441)/4R; peptide series 1.25-160 µM in paragraph 380, the concentration of the bars is not given.
The target in assay [3] is T1, tauΔ(1-150;392-441)/3R (human, UniProt P10636 468-708).
T1 construct: Also the transgene of SHR24 rats; also called misdisordered three repeat tau; tau type IIB (151-391/R3)
T1 sequence (P10636 other isoform, or with tags, fused parts or gaps mutant): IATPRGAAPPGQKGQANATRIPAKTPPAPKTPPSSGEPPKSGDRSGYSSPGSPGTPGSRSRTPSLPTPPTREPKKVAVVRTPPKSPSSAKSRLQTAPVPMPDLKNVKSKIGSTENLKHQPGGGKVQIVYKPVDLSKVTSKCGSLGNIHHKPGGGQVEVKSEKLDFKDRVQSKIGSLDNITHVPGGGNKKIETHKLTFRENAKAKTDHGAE
Description: SPR (BIACORE3000, CM5), DC8E8 captured by anti-mouse antibody, tau protein injected, 25 °C, PBS-P, two-phase reaction model. (SPR reads the build-up and loss of mass on a sensor chip optically.)
Description: (§1) A BIACORE3000 instrument with a CM5 sensor chip (Biacore AB, Uppsala) was used for the SPR assays. […] These experiments were done at 25° C. in PBS pH 7.4 with 0.005% of P20 (PBS-P) as the running buffer.
(§2) Kinetic rate constants were approximated globally, maximal responses were fitted locally, and the bulk response was set to zero.

Assay [4] deals with T2, human tau isoform 2N3R (human, UniProt P10636 2-758).
T2 construct: also called tau 2N3R; tau39
T2 sequence (P10636 other isoform, or with tags, fused parts or gaps limits assumed): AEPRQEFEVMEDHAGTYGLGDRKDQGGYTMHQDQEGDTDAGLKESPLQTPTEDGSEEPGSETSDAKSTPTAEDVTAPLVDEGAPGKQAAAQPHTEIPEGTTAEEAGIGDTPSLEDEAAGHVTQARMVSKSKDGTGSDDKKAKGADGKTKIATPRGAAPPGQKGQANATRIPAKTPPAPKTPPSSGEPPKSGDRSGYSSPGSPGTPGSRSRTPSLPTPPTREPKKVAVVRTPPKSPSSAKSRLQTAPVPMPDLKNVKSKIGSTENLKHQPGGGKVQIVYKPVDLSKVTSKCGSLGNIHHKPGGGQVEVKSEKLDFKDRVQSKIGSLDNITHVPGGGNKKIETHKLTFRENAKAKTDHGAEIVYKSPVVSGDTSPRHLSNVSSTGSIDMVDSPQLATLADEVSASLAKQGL
Described as above.
Description: as §1, §2

The target of assay [5] is T1, tauΔ(1-150;392-441)/3R. The description is as above. This is another data set of the same source.
Description: as §1, §2
The target of assay [6] is T2, human tau isoform 2N3R. The assay is described as above. This is another data set of the same source.
Description: as §1, §2
In assay [7] the target is T3, human tau isoform 2N4R (human, UniProt P10636 1-758).
T3 construct: also called tau 2N4R; tau441
T3 sequence (P10636 other isoform, or with tags, fused parts or gaps limits assumed): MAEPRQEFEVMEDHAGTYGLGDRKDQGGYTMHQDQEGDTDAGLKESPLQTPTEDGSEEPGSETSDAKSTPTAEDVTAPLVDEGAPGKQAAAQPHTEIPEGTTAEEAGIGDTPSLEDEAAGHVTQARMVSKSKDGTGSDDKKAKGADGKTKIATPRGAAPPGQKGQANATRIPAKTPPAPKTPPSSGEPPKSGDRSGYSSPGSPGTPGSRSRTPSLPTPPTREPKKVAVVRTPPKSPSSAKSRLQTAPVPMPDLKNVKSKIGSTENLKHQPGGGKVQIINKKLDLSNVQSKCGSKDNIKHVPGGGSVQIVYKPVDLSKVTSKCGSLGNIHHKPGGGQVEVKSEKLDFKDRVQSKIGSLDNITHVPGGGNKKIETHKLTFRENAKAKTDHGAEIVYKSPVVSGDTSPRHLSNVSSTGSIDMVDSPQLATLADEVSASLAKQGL
Described as above.
Description: as §1, §2

Assay [8] deals with T4, tauΔ(1-150;392-441)/4R (human, UniProt P10636 468-708).
T4 construct: Recombinant truncated human tau, numbered on 2N4R; also the transgene of SHR72 rats; also called misdisordered tau; pathological tau
T4 sequence (P10636 other isoform, or with tags, fused parts or gaps mutant limits assumed): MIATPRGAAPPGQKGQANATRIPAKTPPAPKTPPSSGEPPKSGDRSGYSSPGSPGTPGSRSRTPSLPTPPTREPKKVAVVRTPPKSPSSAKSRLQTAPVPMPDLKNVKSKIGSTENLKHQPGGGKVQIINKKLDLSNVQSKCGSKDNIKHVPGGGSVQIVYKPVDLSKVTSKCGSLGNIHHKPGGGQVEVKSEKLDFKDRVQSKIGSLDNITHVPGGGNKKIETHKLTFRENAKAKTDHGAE
The assay is described as above.
Description: as §1, §2

The next assay has as its target T5, 282-311/4R.
T5 peptide: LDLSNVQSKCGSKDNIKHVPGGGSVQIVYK
The assay is described as follows: ELISA, synthetic peptide coated (5 µg/ml), DC8E8 hybridoma culture supernate, anti-mouse Ig-HRP, absorbance 492 nm.

In another assay the target is T6, 259-288/4R.
T6 peptide: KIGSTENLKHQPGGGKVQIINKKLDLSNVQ
The assay is described as above.

For a further assay, the target named is 275-304/4R. The assay is described as above.
The next assay concerns the target T7, 256-285/3R (not fully specified).
T7 peptide: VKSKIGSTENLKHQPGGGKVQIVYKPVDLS
The description is as above.

Another assay deals with T8, 264-293/3R.
T8 peptide: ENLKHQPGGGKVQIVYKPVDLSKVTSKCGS
The description is as above.

Another assay deals with T9, 264-293/4R.
T9 peptide: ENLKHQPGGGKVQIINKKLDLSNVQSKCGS
The assay is described as above.

The target in another assay is T10, 256-285/4R.
T10 peptide: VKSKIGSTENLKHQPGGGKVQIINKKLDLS
The assay is described as above.

In another assay the target is T11, 259-288/3R (not fully specified).
T11 peptide: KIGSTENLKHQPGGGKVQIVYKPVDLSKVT
Described as above.

For another assay, the target named is T12, 291-320/4R.
T12 peptide: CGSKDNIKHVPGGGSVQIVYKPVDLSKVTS
The assay is described as above.

The target in the next assay is T13, 314-342/R4.
T13 peptide: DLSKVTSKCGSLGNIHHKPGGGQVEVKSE
The assay is described as above.

The target in a further assay is T14, 281-305/4R.
T14 peptide: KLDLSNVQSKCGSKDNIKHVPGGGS
The description is as above.

The target in assay [9] is T3, human tau isoform 2N4R. Description: SPR (BIACORE3000, CM5), DC8E8 captured by anti-mouse antibody, tau protein injected, 25 °C, PBS-P, two-phase reaction model. The source holds these as a separate data set.
Description: as §1, §2
In assay [10] the target is T4, tauΔ(1-150;392-441)/4R. The assay is described as above. This is another data set of the same source.
Description: as §1, §2
Assay [11] has as its target T3, human tau isoform 2N4R. Description: SPR (Biacore 3000, CM5), His-tagged scDC8E8v captured by anti-His antibody (60 RU), tau protein injected at 100 µl/min, 25 °C, 1:1 model.
The target of assay [12] is T4, tauΔ(1-150;392-441)/4R. The description is as above.

Description for 256-285/3R: (§3) Microtiter plates were coated overnight at 37° C. with either recombinant tau proteins or with tau peptides (5 μg/ml in PBS, 50 μl/well). […] Bound monoclonal antibody was detected with sheep anti-mouse Ig HRP-conjugated (DAKO). The reaction was developed with orthophenylenediamine solution as a peroxidase substrate and stopped with 50 μl of 2 M H₂SO₄. Absorbance was measured at 492 nm using a Multiscan MCC/340 ELISA reader (Labsystems). Readouts with an absorbance value of at least twice the value of the negative controls (PBS) were considered positive.
Description for 256-285/4R: as §3
Description for 259-288/3R: as §3
Description for 259-288/4R: as §3
Description for 264-293/3R: as §3
Description for 264-293/4R: as §3
Description for 275-304/4R: as §3
Description for 281-305/4R: as §3
Description for 282-311/4R: as §3
Description for 291-320/4R: as §3
Description for 314-342/R4: as §3

For the molecule SVFQHLPGGGSC (Designed peptide keeping HxPGGG) [designer therapeutic epitope 2 SVFQHLPGGGSC (SEQ ID NO: 251)], the “IC50 (read off the curve)” value in assay [1] was approximately 0.03 µM.

For the molecule DNIKHVPGGGS (check the listing) [tau peptide 295-DNIKHVPGGGS-305 (SEQ ID NO: 171)], in [2], the binding result was “binds”.

Turning to B1, the off-rate (koff) – broadly, a measure of how fast the partners let go of each other – in the assay with tauΔ(1-150;392-441)/3R [3] worked out at 0.5 s⁻¹; with human tau isoform 2N3R [4] it was 0.5 s⁻¹; with human tau isoform 2N4R [7], 0.04 s⁻¹; with tauΔ(1-150;392-441)/4R [8], 0.04 s⁻¹. Moreover, the kon – broadly, a measure of how fast the partners come together – with tauΔ(1-150;392-441)/3R [3] came out at 490000 M⁻¹ s⁻¹; with human tau isoform 2N3R [4], 140000 M⁻¹ s⁻¹; with human tau isoform 2N4R [7], 460000 M⁻¹ s⁻¹; in the assay with tauΔ(1-150;392-441)/4R [8], 2.6e+06 M⁻¹ s⁻¹. The Ka with tauΔ(1-150;392-441)/3R [5] worked out at 1.1e+06 M⁻¹; with human tau isoform 2N3R [6], 290000 M⁻¹; in the assay with human tau isoform 2N4R [9], 1.1e+07 M⁻¹; in the assay with tauΔ(1-150;392-441)/4R [10], 7.3e+07 M⁻¹. For the same molecule, the binding result with 282-311/4R, with 259-288/4R, with 275-304/4R, with 256-285/3R, with 264-293/3R and with 264-293/4R was “binds” each time. Moreover, the binding result in the assay with 256-285/4R, with 259-288/3R, with 291-320/4R, in the assay with 314-342/R4 and in the assay with 281-305/4R was “binds” throughout.

B2: recombinant scFv fragment of monoclonal antibody DC8E8 (scDC8E8v) (scFv, V domains shown)
VH: QVQLQQSGPELVKPGTSVKMPCKASGYIFTDYVISWVKQRTGQGLEWIGEIFPRSGSTYYNEKFKGKATLTADKSSNTAYMQLSSVTSEDSAVYFCARDYYGTSFAMDYWGQGTSVTVSS
VL: DIVMSQSPSSLAVSAGEKVTMSCKSSQSLLNSRTRKNYLAWYQQKPGQSPKLLIYWASTRESGVPDRFTGSGSGTDFTLTISSVQAEDLAVYYCKQSFYLRTFGGGTKLDIK
In the assay with human tau isoform 2N4R [11], B2 came in with a Ka of 270000 M⁻¹, an off-rate (koff) of 0.2 s⁻¹ and an on-rate (kon) of 57000 M⁻¹ s⁻¹. In the assay with tauΔ(1-150;392-441)/4R [12], this molecule returned a Ka of 8.1e+06 M⁻¹, an off-rate (koff) of 0.02 s⁻¹ and a kon of 180000 M⁻¹ s⁻¹.

GWSIHSPGGGSC (Designed peptide keeping HxPGGG) [designer therapeutic epitope 1 GWSIHSPGGGSC (SEQ ID NO: 250)]: the “IC50 (read off the curve)” value in assay [1] is 2 to 3 µM.
